Reference: US6773704B1, “Methods of treating vascular disease associated with cystatin C deficiency” (The Brigham and Women's Hospital, Inc., priority 1999, dated 2004)
“Also recorded” adds a separate entry of the source.

Columns and labels:
Assay type in all cases: cell-based, human
[1] = system: IFN-γ-stimulated smooth muscle cells elastase activity; assay: Elastase assay: smooth muscle cells co-cultured with insoluble [3H]-elastin
Description: FIG. 2 is a bar graph showing that smooth muscle cells elastase activity is inhibited by recombinant cystatin C. Interferon-γ stimulated smooth muscle cells were co-cultured in serum-free medium with insoluble elastin in the presence of increasing concentrations of cystatin C as indicated in the panel. After 72 hrs, media were collected and soluble radioactivity measured as an index of elastin degradation.
FIG. 3 is a graph showing that TGF-β1 blocks smooth muscle cells elastase activity. Interferon-stimulated smooth muscle cells were co-cultured with elastin as above in the presence of increasing amounts of TGF-β1 and elastin degradation quantified after 72 hrs.
Prior studies documenting the capacity of macrophages to use cysteine proteases to degrade elastin found macrophage elastolytic activity to be insensitive to the presence of pericellular serum protease inhibitors (Reedy et al., 92 Porch. Natl. Acad. Sci. 3849-853 (1995); Chapman et al., 74 J. Clin. Invest. 1693-700 (1984)). Given the marked reduction of cystatin C in atherosclerotic and aneurysmal lesions and the clinical correlation in EXAMPLES 1-3, the influence of cystatin C on the elastolytic activity of cultured vascular smooth muscle cells was examined. Vascular smooth muscle cells were stimulated with IFN-γ (500 units/ml) for 24 hours to augment cathepsin S-dependent elastase activity (Sukhova et al., 102 J. Clin. Invest. 576-83 (1998)). In co-cultures with insoluble elastin, the addition of as little as 10 ng/ml of recombinant cystatin C inhibits elastin degradation (FIG. 2). Higher concentrations of cystatin C block >75% of the IFNγ-induced activity, confirming that smooth muscle cells elastase activity depends largely on elastolytic cysteine proteases.
The elastase assay was performed as follows: Smooth muscle cells were cultured on 24-well plates in 10% FBS DMEM until 100% confluence (5×10^5 cells/well). […] The digested elastin radioactivity was counted using 200 μl of medium and the data presented as μg elastin degraded per 10^6 cells in 24 hours.

[2] = system: cathepsin S and cystatin C mRNA in smooth muscle cells; assay: Northern blot analysis of smooth muscle cell RNA
Experimental: Total RNAs were isolated from control and IFN-γ-stimulated smooth muscle cells for Northern blot analysis. Northern blot analysis was performed as follows: After INF-γ and TGF-β1 treatments, 1.5×10^7 smooth muscle cells were lysed in 5 ml of guanidium. isothiocyanate (GTC) lysis buffer for RNA preparation as described (Sukhova et al., 102 J. Clin. Invest. 576-83 (1998)). Twenty micrograms of total RNA from smooth muscle cells were separated on 1.2% agarose gel and blotted on Zeta-Probe GT blotting membrane (Bio-Rad Laboratories, Inc.). A human cystatin C probe was generated by polymerase chain reaction using cystatin C cDNA. The 500 bp cystatin C cDNA fragment and cathepsin S cDNA probe (Sukhova et al., 102 J. Clin. Invest 576-83 (1998)) were labeled with [^32P]-dCTP and purified with NENSORB 20 column (NEN Life Science Products, Inc.) before hybridizing as previously described (Sukhova et al., 102 J. Clin. Invest. 576-83 (1998)).

[3] = system: cathepsin S and cystatin C protein/secretion by smooth muscle cells; assay: Immunoblot analysis of smooth muscle cell lysates and culture medium; conditions: for cystatin C secretion (level of secreted cystatin C): cultured vascular smooth muscle cells, culture medium
Experimental: Human sapheneous vein smooth muscle cells were cultured in Swell plates in Dulbecco's Modification of Eagle's Medium (DMEM) containing 10% fetal bovine serum (FBS) until confluent. […] Culture medium was then collected and centrifuged at 16000×g for 10 min. Proteins were precipitated with 20% trichloroacetic acid on ice for 30 min. followed by repeat centrifugation. The protein pellet was briefly washed with 100% ethanol and resuspended in electrophoresis sample buffer smooth muscle cells were lysed directly into sample buffer after two washes with 1×PBS. Both cell lysates and proteins from culture medium were separated on SDS-PAGE for immunoblot analysis with antibodies against human cathepsin S and cystatin C as described above. All Western blots were developed with Western Blot Chemiluminescence Reagent (NEN Life Science Products, Inc., Boston, Mass., USA).

[4] = smooth muscle cells, TGF-β1 5 ng/ml
[5] = smooth muscle cells stimulated with IFN-γ (500 units/ml)

Molecule	concentration that almost completely blocks elastase activity ([1]; IFN-γ-stimulated smooth muscle cells, elastin degradation after 72 hrs) [ng/mL]	level of cathepsin S mRNA [2, 4]	level of cystatin C mRNA [2, 4]	cystatin C secretion (level of secreted cystatin C) [3]	time after exposure at which cystatin C biosynthesis increases ([3]; smooth muscle cells exposed to TGF-β1)	level of cathepsin S protein [3, 4]	concentration that inhibits elastin degradation (elastolytic activity) ([1]; IFN-γ (500 units/ml) stimulated vascular smooth muscle cells co-cultured with insoluble elastin, 72 hrs) [ng/mL]	block of IFNγ-induced elastase activity ([1]; higher concentrations of cystatin C (tested 0-500 ng/ml), IFN-γ-stimulated smooth muscle cells) [%]	cathepsin S mRNA [2, 5]	secretion of active cathepsin S [3, 5]
TGF-β1: transforming growth factor-β1, native or recombinant cytokine (SEQ ID NO:2); induces cystatin C secretion	≤ 1	does not change	does not change	markedly increases; also recorded: stimulates; also recorded: potent inducer	one	does not change				
recombinant cystatin C: 13 kDa extracellular inhibitor of cysteine proteases, human sequence SEQ ID NO:1; native or recombinant (protein, UniProt P01034 27-146, looked up) Cystatin-C: SSPGKPPRLVGGPMDASVEEEGVRRALDFAVGEYNKASNDMYHSRALQVVRARKQIVAGVNYFLDVELGRTTCTKTQPNLDNCPFHDQPHLKRKAFCSFQIYAVPWQGTMTLSKSTCQDA							≤ 10	> 75		
IFN-γ: pro-inflammatory cytokine used at 500 units/ml to stimulate smooth muscle cell cathepsin S-dependent elastase activity (protein, UniProt P01579 24-161, looked up) Interferon gamma: QDPYVKEAENLKKYFNAGHSDVADNGTLFLGILKNWKEESDRKIMQSQIVSFYFKLFKNFKDDQSIQKSVETIKEDMNVKFFNSNKKKRDDFEKLTNYSVTDLNVQRKAIHELIQVMAELSPAAKTGKRKRSQMLFRG				no effect					induces	induces
